Assay results: paper PMC11187563, “The importance of tyrosines in multimers of cyclic RGD nonapeptides: towards αvβ6-integrin targeted radiotherapeutics” (RSC Medicinal Chemistry, 2024)
Like-named read-outs stand apart in the source and are kept apart here.

How the values were obtained:
[1] = Ex vivo biodistribution of 177Lu-labeled peptide tetramers in H2009 xenografted SCID mice; conditions: CB17 SCID, mouse, iv, total radioactivity, H2009 bearing SCID mice; for tissue uptake at 1.5 h / tissue to tissue ratio at 1.5 h: 90 pmol, 90 min p.i.; for tissue uptake at 72 h / tissue to tissue ratio at 72 h: 92 pmol, 3 d p.i.
Description: (§1) The biodistribution of the ^177Lu-labeled peptide conjugates was investigated in severe combined immunodeficiency (SCID) mice bearing subcutaneous xenografts of the αvβ6-integrin expressing human lung adenocarcinoma cell line H2009 on their right shoulders. Two representative time points after i.v. administration (p.i.) were evaluated.
(§2) Analytical HPLC was performed on a Shimadzu (Kyoto, Japan) Prominence HPLC system equipped with either a Dr. Maisch ReproSil Pur C18 AQ 150 × 4.6 mm, 5 μm, 120 Å (AC1) or a Phenomenex Kinetex C18 150 × 4.6 mm 5 μm column (AC2). Semipreparative HPLC was performed on a Shimadzu HPLC system equipped with either a Dr. Maisch ReproSil Pur C18 AQ 250 × 10 mm, 5 μm, 120 Å column with 5 mL min^−1 flow (PC1) or a Dr. Maisch ReproSil Pur C18 150 × 30 mm, 5 μm, 120 Å column with 20 mL min^−1 flow (PC2). Solvents for both systems were water (A) and acetonitrile (B) each supplemented with 0.1% (vol) trifluoroacetic acid (TFA). ESI-MS spectra (positive mode) were recorded on a Shimadzu LC-MS 2020 single quadrupol mass spectrometer. Solvents for MS applications were water (A) and acetonitrile (B) each supplemented with 0.1% (vol) formic acid. The other experimental procedures (determination of log D7.4, cultivation of H2009 human lung adenocarcinoma cells, generation of tumor xenografts in CB17 SCID mice, and biodistribution) were performed as described before.[28] All animal experiments have been carried out according to applicable law and institutional guidelines of Technical University of Munich, and were approved by the responsible local authority (Regierung von Oberbayern). The H2009 cells were regularly authenticated and tested for mycoplasma contamination. DOTPI-tetraazide,[43]FF (previously termed AvB6),[29]FY,[34] and YY (also referred to as Tyr2-alkyne)[36] were synthesized as described previously.

[2] = system: αvβ6-integrin expressing human lung adenocarcinoma cell line H2009 xenografts; assay: as above; conditions: H2009 bearing SCID mice
Description: as §1, §2

[3] = H2009 tumor, read-out: Tumor H2009 %IA/g
[4] = adrenals, read-out: Adrenals %IA/g
[5] = heart (myocard), read-out: Heart (myocard) %IA/g
[6] = kidneys, read-out: Kidneys %IA/g
[7] = large intestine (empty), read-out: Large intestine (empty) %IA/g
[8] = pancreas, read-out: Pancreas %IA/g
[9] = small intestine (empty), read-out: Small intestine (empty) %IA/g
[10] = stomach (empty), read-out: Stomach (empty) %IA/g
[11] = tumor/blood, read-out: tumor/organ ratio, Blood
[12] = tumor/heart (myocard), read-out: tumor/organ ratio, Heart (myocard)
[13] = tumor/liver, read-out: tumor/organ ratio, Liver
[14] = tumor/lung, read-out: tumor/organ ratio, Lung
[15] = tumor/pancreas, read-out: tumor/organ ratio, Pancreas
[16] = tumor/spleen, read-out: tumor/organ ratio, Spleen

## CC(C)C[C@@H]1NC(=O)[C@H](CC(=O)O)NC(=O)CNC(=O)[C@H](CCCNC(=N)N)NC(=O)[C@H](Cc2ccccc2)NC(=O)[C@H](CCCCNC(=O)CCc2cn(CCCNC(=O)CCP(=O)(O)CN3CCN(CP(=O)(O)CCC(=O)NCCCn4cc(CCC(=O)NCCCC[C@H]5C(=O)N[C@@H](Cc6ccccc6)C(=O)N[C@@H](CCCNC(=N)N)C(=O)NCC(=O)N[C@@H](CC(=O)O)C(=O)N[C@@H](CC(C)C)C(=O)N[C@@H](C)C(=O)N[C@@H](Cc6ccccc6)C(=O)N6CCC[C@@H]6C(=O)N5C)nn4)CCN(CP(=O)(O)CCC(=O)NCCCn4cc(CCC(=O)NCCCC[C@H]5C(=O)N[C@@H](Cc6ccccc6)C(=O)N[C@@H](CCCNC(=N)N)C(=O)NCC(=O)N[C@@H](CC(=O)O)C(=O)N[C@@H](CC(C)C)C(=O)N[C@@H](C)C(=O)N[C@@H](Cc6ccccc6)C(=O)N6CCC[C@@H]6C(=O)N5C)nn4)CCN(CP(=O)(O)CCC(=O)NCCCn4cc(CCC(=O)NCCCC[C@H]5C(=O)N[C@@H](Cc6ccccc6)C(=O)N[C@@H](CCCNC(=N)N)C(=O)NCC(=O)N[C@@H](CC(=O)O)C(=O)N[C@@H](CC(C)C)C(=O)N[C@@H](C)C(=O)N[C@@H](Cc6ccccc6)C(=O)N6CCC[C@@H]6C(=O)N5C)nn4)CC3)nn2)N(C)C(=O)[C@H]2CCCN2C(=O)[C@H](Cc2ccccc2)NC(=O)[C@H](C)NC1=O [Compound 177Lu-Y0, metal not drawn]
[1]; [3]
  tissue uptake at 1.5 h: 3.23 %ID/g
  tissue uptake at 72 h: 1.72 %ID/g
[1]; [4]
  tissue uptake at 1.5 h: 1.36 %ID/g
  tissue uptake at 72 h: 0.82 %ID/g
[1]; blood, read-out: Blood %IA/g
  tissue uptake at 1.5 h: 1.2 %ID/g
  tissue uptake at 72 h: 0.02 %ID/g
[1]; bone, read-out: Bone %IA/g
  tissue uptake at 1.5 h: 1.45 %ID/g
  tissue uptake at 72 h: 0.42 %ID/g
[1]; [5]
  tissue uptake at 1.5 h: 1.13 %ID/g
  tissue uptake at 72 h: 0.43 %ID/g
[1]; [6]
  tissue uptake at 1.5 h: 208 %ID/g
  tissue uptake at 72 h: 243 %ID/g
[1]; [7]
  tissue uptake at 1.5 h: 3 %ID/g
  tissue uptake at 72 h: 1.19 %ID/g
[1]; liver, read-out: Liver %IA/g
  tissue uptake at 1.5 h: 5.03 %ID/g
  tissue uptake at 72 h: 2.61 %ID/g
[1]; lung, read-out: Lung %IA/g
  tissue uptake at 1.5 h: 3.59 %ID/g
  tissue uptake at 72 h: 1.22 %ID/g
[1]; muscle, read-out: Muscle %IA/g
  tissue uptake at 1.5 h: 0.53 %ID/g
  tissue uptake at 72 h: 0.29 %ID/g
[1]; [8]
  tissue uptake at 1.5 h: 0.49 %ID/g
  tissue uptake at 72 h: 0.31 %ID/g
[1]; [9]
  tissue uptake at 1.5 h: 1.67 %ID/g
  tissue uptake at 72 h: 0.82 %ID/g
[1]; spleen, read-out: Spleen %IA/g
  tissue uptake at 1.5 h: 2.22 %ID/g
  tissue uptake at 72 h: 1.58 %ID/g
[1]; [10]
  tissue uptake at 1.5 h: 4.15 %ID/g
  tissue uptake at 72 h: 2.63 %ID/g
[1]; tumor / adrenals, read-out: tumor/organ ratio, Adrenals
  tissue to tissue ratio at 72 h: 2.1
[1]; tumor / bone, read-out: tumor/organ ratio, Bone
  tissue to tissue ratio at 72 h: 5
[1]; tumor / large intestine (empty), read-out: tumor/organ ratio, Large intestine (empty)
  tissue to tissue ratio at 72 h: 2.1
[1]; tumor / muscle, read-out: tumor/organ ratio, Muscle
  tissue to tissue ratio at 72 h: 8.2
[1]; tumor / small intestine (empty), read-out: tumor/organ ratio, Small intestine (empty)
  tissue to tissue ratio at 72 h: 2.2
[1]; tumor / stomach (empty), read-out: tumor/organ ratio, Stomach (empty)
  tissue to tissue ratio at 72 h: 0.8
[1]; tumor/adrenals, read-out: tumor/organ ratio, Adrenals
  tissue to tissue ratio at 1.5 h: 2.9
[1]; [11]
  tissue to tissue ratio at 1.5 h: 2.7
  tissue to tissue ratio at 72 h: 97.5
[1]; tumor/bone, read-out: tumor/organ ratio, Bone
  tissue to tissue ratio at 1.5 h: 2.4
[1]; [12]
  tissue to tissue ratio at 1.5 h: 3
  tissue to tissue ratio at 72 h: 4.3
[1]; tumor/large intestine (empty), read-out: tumor/organ ratio, Large intestine (empty)
  tissue to tissue ratio at 1.5 h: 1.1
[1]; [13]
  tissue to tissue ratio at 1.5 h: 0.7
  tissue to tissue ratio at 72 h: 0.7
[1]; [14]
  tissue to tissue ratio at 1.5 h: 0.9
  tissue to tissue ratio at 72 h: 1.5
[1]; tumor/muscle, read-out: tumor/organ ratio, Muscle
  tissue to tissue ratio at 1.5 h: 6
[1]; [15]
  tissue to tissue ratio at 1.5 h: 6.7
  tissue to tissue ratio at 72 h: 6.3
[1]; tumor/small intestine (empty), read-out: tumor/organ ratio, Small intestine (empty)
  tissue to tissue ratio at 1.5 h: 2
[1]; [16]
  tissue to tissue ratio at 1.5 h: 1.6
  tissue to tissue ratio at 72 h: 1.1
[1]; tumor/stomach (empty), read-out: tumor/organ ratio, Stomach (empty)
  tissue to tissue ratio at 1.5 h: 0.8
[2]; 90 min p.i.
  tumor/organ ratio, Kidneys: 0.0
[2]; 3 d p.i.
  tumor/organ ratio, Kidneys: 0.0
